From the supplement of paper PMC7877785
± gives the uncertainty stated by the source.

Assay: self-splicing fitness, log relative to wild type (ln ratio); higher = more splicing; Tetrahymena group I intron in knt gene, E. coli kanamycin selection, DiMSum; sequences stand for … in CUCUCU…GGAGGGAAAAGUUAUCAGGCAUGCACCUGGUAGCUAGUCUUUAAACCAAUAGAUUGCAUCGGUUUAAAAGGCAAGACCGUCAAAUUGCGGGAAAGGGGUCAACAGCCGUUCAGUACCAAGUCUCAGGGGAAACUUUGAGAUGGCCUUGCAAAGGGUAUGGUAAUAAGCUGACGGACAUGGUCCUAACCACGCAGCCAAGUCCUAAGUCAACAGAUCUUCUGUUGAUAUGGAUGCAGUUCACAGACUAAAUGUCGGUCGGGGAAGAUGUAUUCUUCUCAUAAGAUAUAGUCGGACCUCUCCUUAAUGGGAGCUAGCGGAUGAAGUGAUGCAACACUGGAGCCGCUGGGAACUAAUUUGUAUGCGAAAGUAUAUUGAUUAGUUUUGGAGUACUCGUGGUCG
Procedure, shortened: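 DiMSum derived fitness as the error-weighted combination of fold changes across replicates, kanamycin versus no kanamycin, normalised to wild type. E. coli BL21(DE3) held the library, which randomised all eight P1ex-region intron nucleotides within the knt kanamycin-resistance gene on pET-22b(+). Six replicate transformations grew overnight at 37°C or 30°C on LB agar with or without 25 μg/mL kanamycin, also containing 100 μg/mL carbenicillin, 50 μM IPTG and 0.2% rhamnose, and pooled colonies were amplicon-sequenced on an Illumina HiSeq 2500.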

| Sequence | self-splicing fitness (ln) (30 °C) | self-splicing fitness (ln) (37 °C) |
| --- | --- | --- |
| AACAAGCAAUAUUACGUCUC | -3.51 ± 0.2 | -1.89 ± 0.16 |
| GAUAAGCAAUAUUACGGACA | -1.39 ± 0.09 | -0.559 ± 0.088 |
| CCCUAGCAAUAUUACGUAGG | -2.61 ± 0.15 | -2.15 ± 0.29 |
| UAAAAGCAAUAUUACGUAAC | -3.84 ± 0.33 | -2.02 ± 0.3 |
| UGUCAGCAAUAUUACGGCGA | -0.34 ± 0.093 | -0.0234 ± 0.1 |
| AAGAAGCAAUAUUACGGCAA | -0.128 ± 0.096 | -0.201 ± 0.13 |
| AUAUAGCAAUAUUACGAAAC | -2.85 ± 0.29 | -2.03 ± 0.34 |
| AGUUAGCAAUAUUACGUGUC | -2.09 ± 0.33 | -1.42 ± 0.36 |
| UGGGAGCAAUAUUACGAUGU | -3.95 ± 0.33 | -2.53 ± 0.3 |
| ACUUAGCAAUAUUACGAGGG | -3.07 ± 0.24 | -2.65 ± 0.23 |
| UCCAAGCAAUAUUACGGUUC | -3.22 ± 0.22 | -2.56 ± 0.18 |
| CGGUAGCAAUAUUACGCACA | -0.755 ± 0.26 | -0.0778 ± 0.19 |
| AAACAGCAAUAUUACGCAAU | -2.97 ± 0.081 | -1.4 ± 0.076 |
| UCGCAGCAAUAUUACGCGGG | -3.93 ± 0.3 | -3.33 ± 0.33 |
| AUAUAGCAAUAUUACGAGGU | -3.66 ± 0.26 | -1.44 ± 0.15 |
| GGCCAGCAAUAUUACGGAGA | -0.788 ± 0.095 | -0.565 ± 0.086 |
| CACGAGCAAUAUUACGAUUA | -3.34 ± 0.31 | -2.12 ± 0.25 |

| Sequence | self-splicing fitness (ln) (30 °C) | self-splicing fitness (ln) (37 °C) |
| --- | --- | --- |
| UAUCAGCAAUAUUACGAUAG | -0.799 ± 0.11 | 0.204 ± 0.15 |
| AAAUAGCAAUAUUACGGGGA | -3.71 ± 0.25 | -2.86 ± 0.19 |
| GACCAGCAAUAUUACGGCGC | -0.331 ± 0.09 | 0.162 ± 0.1 |
| AGCCAGCAAUAUUACGAUGG | -4.33 ± 0.26 | -2.28 ± 0.19 |
| GAUUAGCAAUAUUACGGAAU | -2.71 ± 0.15 | -2.11 ± 0.17 |
| UCCGAGCAAUAUUACGCAUA | -2.24 ± 0.42 | -2.26 ± 0.35 |
| CGCAAGCAAUAUUACGGUAA | -3.47 ± 0.16 | -1.67 ± 0.1 |
| GACCAGCAAUAUUACGAGCU | -2.91 ± 0.14 | -1.41 ± 0.15 |
| AGGAAGCAAUAUUACGAGAU | -4.23 ± 0.26 | -1.1 ± 0.13 |
| CCGGAGCAAUAUUACGACGA | -0.828 ± 0.23 | -1.07 ± 0.24 |
| ACUUAGCAAUAUUACGCCUU | -0.353 ± 0.095 | -0.14 ± 0.11 |
| UACAAGCAAUAUUACGAACC |  | -0.357 ± 0.23 |
| UGGGAGCAAUAUUACGGCCU | -2.18 ± 0.16 | -1.9 ± 0.2 |
| CGGUAGCAAUAUUACGAAAA | -2.62 ± 0.35 | -2.77 ± 0.39 |
| CCCUAGCAAUAUUACGCUGC | -3.47 ± 0.32 |  |
| CGCUAGCAAUAUUACGACCU | -1.72 ± 0.19 | -1.62 ± 0.18 |
| GGUCAGCAAUAUUACGUACG | 0.123 ± 0.08 | -0.609 ± 0.082 |
